Measurements: patent publication US20220362394A1 (SUTRO BIOPHARMA, published 2022)

T1: human BCMA on cells (human, UniProt Q02223 1-184)
T1 construct: also called hBCMA; BCMA on NCI-H929, ARP-1, OPM-2, U266B1, MM.1S, RPMI-8226 cells
T1 sequence: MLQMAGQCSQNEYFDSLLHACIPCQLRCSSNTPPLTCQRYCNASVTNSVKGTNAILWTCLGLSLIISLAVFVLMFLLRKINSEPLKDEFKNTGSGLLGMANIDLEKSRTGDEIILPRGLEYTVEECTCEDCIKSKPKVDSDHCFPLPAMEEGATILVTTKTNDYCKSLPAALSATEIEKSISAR

T2: human BCMA-Fc (human, UniProt Q02223 1-54)
T2 construct: Bought from R&D Systems; also called huBCMA-Fc; not shown: Fc part not described
T2 sequence: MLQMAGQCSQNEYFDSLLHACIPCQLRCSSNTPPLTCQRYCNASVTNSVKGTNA


Columns and labels:
human BCMA on cells = molecular target: T1, human BCMA on cells; experiment: FACS, NCI-H929 cells
Method: (§1) Variants for which sufficient protein was purified in secondary screening were tested in a fluorescence-activated cell sorting (FACS) cell-binding assay. […] 6-12 point dilutions of anti-BCMA variants starting from concentrations of about 100-200 nM antibody were dispensed into each well using a BioMekFX (Beckman Coulter). Cells were then incubated on ice for 1 hr, washed with FACS buffer and incubated for 1 hr on ice with […] FACS buffer containing 2.5 μg/ml Alexa647-conjugated Goat Anti-Human IgG dispensed using BioMekFX (Beckman Coulter). Cells were then washed 2× with FACS buffer and fixed for 10 minutes in […] PBS with 2% paraformaldehyde (PFA) prior to fluorescence detection. Samples were acquired using a Beckton Dickinson LSRII FACS. Geometric Mean Fluorescence Intensity of BCMA antibody binding was analyzed using FlowJo® software (Tree Star, Inc.).

cynomolgus BCMA on cells [1] = molecular target: T3, cynomolgus BCMA on cells (cynomolgus monkey, UniProt Q02223 1-184 (human entry)); experiment: FACS, 293T-cynoBCMA cells
Method: as §1

human BCMA-Fc [2] = molecular target: T2, human BCMA-Fc; experiment: SPR Biacore, human BCMA-Fc kinetics
Method: (§2) Anti-Fab or anti-Fc polyclonal antibodies were immobilized onto a CM5 chip (GE Life Sciences) using amine coupling chemistry (from Amine Coupling Kit, GE Life Sciences). The immobilization steps were carried out at a flow rate of 25 μL/min in 1×HBS-EP+ buffer (GE Life Sciences; 10× Stock diluted before use). The sensor surfaces were activated for 7 min with a mixture of NHS (0.05 M) and EDC (0.2 M). The anti-Fab or anti-Fc antibodies were injected over all 4 flow cells at a concentration of 25 μg/ml in 10 mM sodium acetate, pH 4.5, for 7 min. Ethanolamine (1 M, pH 8.5) was injected for 7 min to block any remaining activated groups.
(§3) Off-rate and kinetic binding experiments were performed at 25° C. using 1×HBS-EP+ buffer. […] After capturing ligand (antibody) on the anti-Fab or anti-Fc surface, the analyte (human BCMA-Fc, cyno BCMA-Fc, or human BCMA from R&D Systems, custom protein production, or Sigma Aldrich, respectively) was bound for 180 seconds, followed by a 600 second dissociation phase at a flow rate of 50 μL/min. Between each ligand capture and analyte binding cycle, regeneration was carried out using 2 injections of 10 mM glycine pH 2.0 for 30 seconds at 30 μL/min, followed by a 30 second buffer wash step.
(§4) The data was fit with the Biacore T200 Evaluation software, using a 1-1 Langmuir binding model. KD (affinity, nM) was determined as a ratio of the kinetic rate constants calculated from the fits of the association and dissociation phases.

human BCMA-Fc [3] = molecular target: T2, human BCMA-Fc; experiment: ELISA, coated huBCMA-Fc
cyno BCMA-Fc = molecular target: T4, cyno BCMA-Fc (cynomolgus monkey, UniProt Q02223 1-54 (human entry)); experiment: ELISA, coated cynoBCMA-Fc
T4 construct: Custom protein production; also called cynomolgus BCMA-Fc; not shown: Fc part not described

human BCMA-Fc [4] = molecular target: T2, human BCMA-Fc; experiment: SPR Biacore, antibody captured, 25 C
Method: as §2, §3, §4

cynomolgus BCMA on cells [5] = molecular target: T3, cynomolgus BCMA on cells; experiment: FACS, 293T-cynoBCMA cells; NSB = non-saturating binding
rat BCMA on cells = molecular target: T5, rat BCMA on cells (rat); experiment: FACS, 293T-ratBCMA cells
T5 construct: whole, on cells

T3 sequence (Q02223 other isoform, or with tags, fused parts or gaps): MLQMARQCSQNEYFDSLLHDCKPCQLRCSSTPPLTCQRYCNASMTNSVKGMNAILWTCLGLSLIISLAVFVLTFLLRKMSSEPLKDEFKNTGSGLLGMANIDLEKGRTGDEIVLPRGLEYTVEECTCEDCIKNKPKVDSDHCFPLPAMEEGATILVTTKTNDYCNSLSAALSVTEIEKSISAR

| Binder | Bmax (human BCMA on cells) [MFI] | Kd (human BCMA on cells) [nM] | Bmax (cynomolgus BCMA on cells [1]) [MFI] | Kd (cynomolgus BCMA on cells [1]) [nM] | Kd (human BCMA-Fc [2]) [nM] | koff (human BCMA-Fc [2]) [s⁻¹] | kon (human BCMA-Fc [2]) [M⁻¹ s⁻¹] | Bmax (human BCMA-Fc [3]) | EC50 (human BCMA-Fc [3]) [nM] | Bmax (cyno BCMA-Fc) | EC50 (cyno BCMA-Fc) [nM] | Kd (human BCMA-Fc [4]) [nM] | koff (human BCMA-Fc [4]) [s⁻¹] | kon (human BCMA-Fc [4]) [M⁻¹ s⁻¹] | binding result (cynomolgus BCMA on cells [5]) | Bmax (rat BCMA on cells) [MFI] | Kd (rat BCMA on cells) [nM] |
| --- | --- | --- | --- | --- | --- | --- | --- | --- | --- | --- | --- | --- | --- | --- | --- | --- | --- |
| 11D6 (antibody, V domains shown, Chicken HybriFree-derived antibody; also called Antibody 32) VH: AVTLDESGGGLQTPGGTLSLVCKASGFTFSSFNMFWVRQAPGEGLEWVAYIRNDGRSTSYGPAVKGRATISRDNGQSTVRLQLNNLRAEDTGTYFCAKTTCVGSGGCIDTWGHGTEVIVSS VL: ALTQPSSVSANPGETVEITCSGGNSDYGWFQQKSPGSAPVTVIYRNNQRPSDIPSRFSGSGSGSTNTLTITGVQAEDEAIYYCGNVDFTDDVFGAGTTLTVL | 26400 | 47.5 | 27700 | 12.2 | 0.313 | 0.000318 | 1.02e+06 |  |  |  |  |  |  |  |  |  |  |
| 2190-B01 (antibody, V domains shown, also called Antibody 16) VH: EVQLVESGGGLVQPGGSLRLSCAASGFNISSYWIHWVRQAPGKGLEWVGVITPSGGYTYYADSVKGRFTISADTSKNTAYLQMNSLRAEDTAVYYCARDLGGGYWVGFFDYWGQGTLVTVSS VL: not shown |  |  |  |  |  |  |  | 3.68e+06 | 0.3 | 2.15e+06 | 19.3 | 5.23 | 0.000712 | 136000 | binds |  |  |
| 2291-A01 (antibody, V domains shown, also called Antibody 29) VH: EVQLVESGGGLVQPGGSLRLSCAASGFNIDPYTIHWARQAPGKGLEWVAHISPYDGYTDYADSVKGRFTISADTSKNTAYLQMNSLRAEDTAVYYCARDFYDRYSTYVLDYWGQGTLVTVSS VL: not shown | 32500 | 4.9 | 67200 | 1 |  |  |  | 5e+06 | 0.39 | 4.77e+06 | 0.33 | 0.0438 | 2.82e-05 | 644000 |  |  |  |
| 10F4 (antibody, V domains shown, Chicken HybriFree-derived antibody; also called Antibody 37) VH: AVTLDESGGGLQTPGGALSLVCKASGFTFSGYNMGWVRQAPGKGLEYVAGITYGTGSYTAYGAAVKGRATISRDNGQSTLRLQLNNLRAEDTATYYCARGGGLNSYGCSGANIDAWGHGTEVIVSS VL: ALTQPSSVSANLGGTVKITCSGGGNYFGSYYYGWYQQKAPGSAPVTVIYNNNNRPSDIPSRFSGSTSGSTSTLTISGVRAEDEAVYFCGGFDSSTDAIFGAGTTLTVL | 18700 | 10.5 | 12800 | 5.94 |  |  |  |  |  |  |  |  |  |  |  | 410 | 5.47 |
| 10E10 (antibody, V domains shown, Chicken HybriFree-derived antibody; also called Antibody 46) VH: AVTLDESGGGLQTPGGGLSLVCKASGFTFSSYGMGWMRQAPGKGLEFVARINSGGSSYTDYGSAVKGRATISRDDGQSTVRLQLNNLRAEDTGIYYCTRGGGGASIDGWGHGTEVIVSS VL: ALTQPSSVSANPGETVKITCSGGGNYAGSYYYGWYQQKSPGSAPLTVIYNSNNRPSDIPSRFSGSLSGSTGTLTITGVRAEDEAVYFCGGFDSSTDAIFGAGTTLTVL | 3440 | 4.67 | 4540 | 18.9 |  |  |  |  |  |  |  |  |  |  |  | 906 | 6.83 |
| 10H1 (antibody, V domains shown, Chicken HybriFree-derived antibody; also called Antibody 45) VH: AVTLDESGGGLQTPGGALSLVCKASGFTFSGYGMGWMRQAPGKGLEYVARINSAGSDTDYGAAVKGRATISRDNGQSTVRLQLNNLRAEDTATYFCTRGGGGASIDGWGHGTEVIVSS VL: ALTQPSSVSANPGETVKITCSGGGNYYGSYYYGWYQQKAPGSAPVTVIYNNNNRPSNIPSRFSGSKSGSTGTLTITGVQAEDEAVYFCGGFDSSSDAIFGAGTTLTVL | 22500 | 0.36 | 21200 | 0.25 | 2.92 | 17.9 | 6.14e+09 |  |  |  |  |  |  |  |  | 4350 | 0.39 |
| 9E12 (antibody, V domains shown, Chicken HybriFree-derived antibody; also called Antibody 43) VH: AVTLDESGGGLQTPGGGLSLVCKASGFTFSDYGLGWMRQAPGKGLEYVARINSAGSGTYYGSAVDGRATISRDNGQSTVRLQLNNLRAEDTGTYYCTRGGGGASIDGWGHGTEVIVSS VL: ALTQPSSVSANPGETVKITCSGGGSYYGSYYYGWYQQKSPGSAPVTLIYNNNNRPSDIPSRFSGSTSGSTGTLTITGVRAEDEAVYYCGSFDSSTDAIFGAGTTLTVL | 8140 | 0.52 | 13200 | 0.34 |  |  |  |  |  |  |  |  |  |  |  | 4690 | 2.61 |
| 9A5 (antibody, V domains shown, Chicken HybriFree-derived antibody; also called Antibody 42) VH: AVTLDESGGGLQTPGGAVSLVCKASGFSISDYGMGWMRQAPGKGLQYVARIDHDGRYTDYGAVVKGRATISRDNGQSTVRLQLNNLRAEDTGTYYCTRGGGAASIDTWGHGTEVIVSS VL: ALTQPSSVSANPGETVKITCSGGGNYVGGYYYGWYQQKAPGSALVTLIYNNNNRPSNIPSRFSGSTSGSTSTLTITGVRAEDEAVYFCGSFDSSTDAIFGAGTTLTVL | 19700 | 1.01 | 18200 | 0.64 |  |  |  |  |  |  |  |  |  |  |  | 2780 | 7.13 |
| 9H1 (antibody, V domains shown, Chicken HybriFree-derived antibody; also called Antibody 44) VH: AVTLDESGGGLQTPGGALSLVCKGSGFTFSDYGMGWMRQAPGKGLQYVARINSAGSDTNYGSAVKGRATISRDDGQSTVRLQLSSLRAEDTGIYYCTRGGGGASIDGWGHGTEVIVSS VL: ALTQPSSVSANPGETVKITCSGGGSYYGSYYYGWYQQKSPGSAPVTLIYNNNNRPSDIPSRFSGSTSGSTGTLTITGVRAEDEAVYYCGSFDSSTDAIFGAGTTLTVL | 6160 | 1 | 11400 | 0.39 |  |  |  |  |  |  |  |  |  |  |  | 3450 | 1.32 |
